8 molecules from patent US20150152192A1 (SAMSUNG ELECTRONICS, published 2015) can be followed below.

Residue numbers refer to the chain shown, from its start.

The Kd is the free concentration of one partner at which half of the binding sites on the other are occupied at equilibrium, for simple one-to-one binding. What is called koff is a measure of how fast the partners let go of each other. The term kon denotes a measure of how fast the partners come together. The IC50 is the concentration that inhibits the measured activity by half.

T1: mouse Ang2 (Accession # NP-031452) (R&D Systems) (mouse, UniProt O35608 19-496, limits assumed)
T1 construct: Bought protein; also called mAng2
T1 sequence (looked up): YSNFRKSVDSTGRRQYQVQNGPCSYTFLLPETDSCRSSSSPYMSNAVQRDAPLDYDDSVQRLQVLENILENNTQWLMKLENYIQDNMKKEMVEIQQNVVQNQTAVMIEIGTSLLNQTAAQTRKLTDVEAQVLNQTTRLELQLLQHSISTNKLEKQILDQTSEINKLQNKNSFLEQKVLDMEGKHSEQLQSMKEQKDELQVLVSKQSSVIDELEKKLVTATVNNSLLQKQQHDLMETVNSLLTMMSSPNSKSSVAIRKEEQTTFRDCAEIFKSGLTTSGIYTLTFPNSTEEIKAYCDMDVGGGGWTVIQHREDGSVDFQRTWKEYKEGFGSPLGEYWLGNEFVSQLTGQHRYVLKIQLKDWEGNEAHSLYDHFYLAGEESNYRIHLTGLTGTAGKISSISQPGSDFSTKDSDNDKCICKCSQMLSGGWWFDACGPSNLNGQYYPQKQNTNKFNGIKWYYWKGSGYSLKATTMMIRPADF

T2: recombinant hAng2 (C-His, R&D Systems) (human, UniProt O15123 19-496)
T2 construct: Bought protein captured on an anti-His chip; not shown: C-terminal His tag
T2 sequence: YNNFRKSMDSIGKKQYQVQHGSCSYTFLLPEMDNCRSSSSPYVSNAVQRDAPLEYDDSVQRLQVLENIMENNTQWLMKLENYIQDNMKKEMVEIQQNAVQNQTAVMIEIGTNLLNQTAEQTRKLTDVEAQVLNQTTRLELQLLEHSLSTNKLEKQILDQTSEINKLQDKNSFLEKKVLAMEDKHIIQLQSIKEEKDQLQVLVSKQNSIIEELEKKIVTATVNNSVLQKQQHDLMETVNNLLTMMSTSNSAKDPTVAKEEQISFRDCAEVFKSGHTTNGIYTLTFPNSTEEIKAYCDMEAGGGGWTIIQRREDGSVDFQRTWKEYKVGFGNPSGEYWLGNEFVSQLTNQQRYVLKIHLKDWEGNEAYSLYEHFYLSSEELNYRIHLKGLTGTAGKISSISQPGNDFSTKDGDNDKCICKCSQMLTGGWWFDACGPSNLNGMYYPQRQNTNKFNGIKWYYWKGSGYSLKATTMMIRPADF

B1: SAIT-ANG-2-AB-4-F11 (IgG form) (antibody, V domains shown)
VH: EVQLLESGGGLVQTGGSLRLSCAASGFTFSDYAMSWVRQAPGKGLEWVSSIYPDDGNTYYADSVKGRFTISRDNSKNTLYLQMNSLRAEDTAVYYCAKHPVRLNLHPMYYYYGMDVWGQGTLVTVSS
VL: QSVLTQPPSASGTPGQRVTISCTGSSSNIGNNAVSWYQQLPGTAPKLLIYSDSQRPSGVPDRFSGSKSGTSASLAISGLRSEDEADYYCATWDYSLSAYVFGGGTKLTVLG
notes: Intact human antibody with human IgG1 constant region
B2: SAIT-ANG-2-AB-3-D3 (IgG form) (antibody, V domains shown)
VH: EVQLLESGGGLVQPGGSLRLSCAASGFTFSDYDMSWVRQAPGKGLEWVSGISSDDGNTYYADSVKGRFTISRDNSKNTLYLQMNSLRAEDTAVYYCARPTIDKYTLRGYYSYGMDVWGQGTLVTVSS
VL: B1 VL with N31S, A33Y, S53N, Q54K, A90G, Y94D, S97N, A98G
notes: as for B1
B3: SAIT-ANG-2-AB-8-A5 (IgG form) (antibody, V domains shown)
VH: EVQLLESGGGLVQPGGSLRLSCAASGFTFSDYYMSWVRQAPGKGLEWVSGIYPSGGSTYYADSVKGRFTISRDNSKNTLYLQMNSLRAEDTAVYYCARDPSTLTYAGFDYWGQGTLVTVSS
VL: B1 VL with T23S, A33Y, S35T, S51A, Q54H, A98G
notes: as for B1
B4: SAIT-ANG-2-AB-4-C11 (IgG form) (antibody, V domains shown)
VH: EVQLLESGGGLVQPGGSLRLSCAASGFTFSDYAMSWVRQAPGKGLEWVSSIYPDDGNTYYADSVKGRFTISRDNSKNTLYLQMNSLRAEDTAVYYCARHTSHHTSIDGYYYYGMDGWGQGTLVTVSS
VL: B1 VL with A33D, Q54K, A90G, T91S, A98G
notes: as for B1
B5: SAIT-ANG-2-AB-2-E6 (IgG form) (antibody, V domains shown)
VH: EVQLLESGGGLVQTGGSLRLSCAASGFTFSDYAMSWVRQAPGKGLEWVSAIYPDSGNKYYADSVKGRFTISRDNSKNTLYLQMNSLRAEDTAVYYCARHSSDPKVKSGYYDDGMDVWGQGTLVAVSS
VL: B1 VL with T23S, S35N, S51A, Q54N, A90G, T91S, A98G
notes: Intact human antibody: VH cloned into a vector with the constant region and Fc region of human IgG1, VL into pFUSE2-CLIg-hl2 (light chain constant region)
B6: SAIT-ANG-2-AB-7-C9 (IgG form) (antibody, V domains shown)
VH: EVQLLESGGGLVQPGGSLRLSCAASGFTFSNYAMSWVRQAPGKGLEWVSAISSGGGNIYYADSVKGRFTISRDNSKNTLYLQMNSLRAEDTAVYYCAKSGIQPSPPSMSSAYAMDVWGQGTLVTVSS
VL: B1 VL with T23S, A33D, S35Y, S51A, D52N, Q54H, A90G, A98G
notes: as for B1
B7: SAIT-ANG-2-AB-4-F5 (IgG form) (antibody, V domains shown)
VH: EVQLLESGGGLVQPGGSLRLSCAASGFTFSDYDMSWVRQAPGKGLEWVSSISHGDSNKYYADSVKGRFTISRDNSKNTLYLQMNSLRAEDTAVYYCAKSSGIQESPPTYYYYGMDVWGQGTLVTVSS
VL: B1 VL with T23S, N31S, S35N, S51A, Q54N, A90G, T91S, A98G
notes: as for B1
B8: FLAG-Tagged hAng2 (ligand)
chain: DYKDDDDKYNNFRKSMDSIGKKQYQVQHGSCSYTFLLPEMDNCRSSSSPYVSNAVQRDAPLEYDDSVQRLQVLENIMENNTQWLMKLENYIQDNMKKEMVEIQQNAVQNQTAVMIEIGTNLLNQTAEQTRKLTDVEAQVLNQTTRLELQLLEHSLSTNKLEKQILDQTSEINKLQDKNSFLEKKVLAMEDKHIIQLQSIKEEKDQLQVLVSKQNSIIEELEKKIVTATVNNSVLQKQQHDLMETVNNLLTMMSTSNSAKDPTVAKEEQISFRDCAEVFKSGHTTNGIYTLTFPNSTEEIKAYCDMEAGGGGWTIIQRREDGSVDFQRTWKEYKVGFGNPSGEYWLGNEFVSQLTNQQRYVLKIHLKDWEGNEAYSLYEHFYLSSEELNYRIHLKGLTGTAGKISSISQPGNDFSTKDGDNDKCICKCSQMLTGGWWFDACGPSNLNGMYYPQRQNTNKFNGIKWYYWKGSGYSLKATTMMIRPADF
notes: also called FLAG-Ang2; non-mutated Ang2

The first test has as its target T1, mouse Ang2 (Accession # NP-031452) (R&D …). Put plainly: ELISA, antigen coated, IgG, anti-hFc-HRP; 50% binding concentration (Kd). As for the experimental part:
To measure binding of the antibodies prepared above with each antigen, ELISA was performed. A 96-well MaxiSorp™ flat-bottom plate (Nunc) was coated with 5˜20 μg/ml of human Ang2 and mouse Ang2 (Accession # NP_{—}031452) (both, R&D Systems). After that, the plate was washed five times with 0.05% (v/v) Tween-20-containing PBS and then blocked with 1% (v/v) BSA-containing PBS at a room temperature for 2 hours. The anti-Ang2 antibodies in their IgG forms prepared above (0.001, 0.01, 0.1, 1, 10, 100, and 1000 nM) were added to each well of the plate which was then allowed to react at a room temperature for 2 hours.
(§1) Thereafter, the plate was washed five times with 0.05% Tween-20-containing PBS and then, an HRP-conjugated anti-human FC (Anti-hFc-HRP conjugated) antibody (SIGMA) diluted in 1% (v/v) BSA-containing PBS at 1:5,000 ratio (v/v) was added in the amount of 50 μl to each well to react at a room temperature for 1 hour, followed by washing five times with 0.1% (v/v) Tween-20-containing PBS. Finally, 100 μl of TMB substrate (cell signal) was added to each well of the plate to induce color development at a room temperature for 3 min and then, the reaction was ceased by the addition of 50 μl of 5N H₂SO₄ solution and OD450 values were measured on a plate reader (Molecular Devices).
(An ELISA detects its analyte on a solid surface through an enzyme-linked reagent.)
B1 displayed a Kd of 0.36 nM.

With B2, the Kd amounted to 0.3 nM.

The molecule B3 gave a Kd of 0.19 nM.

For the molecule B4, the Kd worked out at 0.28 nM.

Molecule B5 came in with a Kd of 0.35 nM.

In the next test the target is T2, recombinant hAng2 (C-His, R&D Systems). Nature of the test: SPR, BIAcore T100, hAng2-His captured on anti-His CM5 chip, antibody flowed. As for the experimental part:
To measure accurate affinities toward an anti-Ang2 antigen, antigen affinities were measured by a SPR method using a BIAcore T100 (GE Healthcare). The SPR method uses refractive index change of light which passes a sensor chip according to the state of materials coated onto the sensor chip, and if an antigen or an antibody is flowed onto a chip coated with the antigen or antibody, it causes changes in refractive index due to their binding and Kd values are thus calculated from the measured values.
First, anti-His antibody was immobilized on a CM5 sensor chip (GE healthcare) up to 8,000 RU levels using a pH 5.0 acetate solution and an amine coupling kit (GE Healthcare). 6 μg/ml of a recombinant hAng2 (C-His, R&D Systems) protein was flowed onto the chip to be captured at 100 to 200 RU levels.
As for B1, the dissociation constant Kd is 0.44 nM, the koff turned out to be 0.000777 s⁻¹ and the kon is 1.76e+06 M⁻¹ s⁻¹.

For B2, the Kd was 0.47 nM, the koff is 0.000546 s⁻¹ and the kon is 1.16e+06 M⁻¹ s⁻¹.

As for B6, the Kd turned out to be 0.205 nM, the koff amounted to 0.000366 s⁻¹ and the kon was determined as 1.78e+06 M⁻¹ s⁻¹.

With B3, the Kd is 0.074 nM, the koff stood at 0.000327 s⁻¹ and the association rate constant (kon) was determined as 4.4e+06 M⁻¹ s⁻¹.

As for B7, the Kd was 0.589 nM, the koff was 0.00112 s⁻¹ and the kon came to 1.9e+06 M⁻¹ s⁻¹.

For the molecule B4, the Kd came out at 0.588 nM, the koff was found to be 0.00049 s⁻¹ and the kon amounted to 833000 M⁻¹ s⁻¹.

With B5, the Kd is 0.65 nM, the koff is 0.000795 s⁻¹ and the on-rate constant (kon) came out at 1.22e+06 M⁻¹ s⁻¹.

A further test concerns the target B8. Put plainly: competitive ELISA: hTie2-Fc coated, 400 ng/ml FLAG-hAng2 plus IgG, anti-FLAG-HRP. Here is the method: To verify molecular interaction of the bound assemblies, a competitive ELISA was performed. A 96-well MaxiSorp™ flat-bottom plate (Nunc) was coated with […] of hTie2-Fc (R&D Systems), which is a protein with the Fc of human IgG1 bound thereto. After that, the plate was washed five times with 0.05% (v/v) Tween-20-containing PBS (Phosphate Buffer Saline) and then blocked with 1% (v/v) BSA (Bovine serum albumin; Sigma)-containing PBS at a room temperature for 2 hours.
as §1, with “an HRP-conjugated anti-FLAG antibody (SIGMA)” for “an HRP-conjugated anti-human FC (Anti-hFc-HRP conjugated) antibody (SIGMA)”, “amount of 100 μl to” for “amount of 50 μl to”, “for 3 min. Then, the reaction” for “for 3 min and then, the reaction”
Take B1: the IC50 amounted to 0.37 nM.

Take B2: the IC50 was determined as 0.44 nM.

On to B6, for which the IC50 turned out to be 0.392 nM.

B3: the IC50 is 0.341 nM.

As for B7, the IC50 worked out at 1.52 nM.

Turning to B4, the half-inhibitory concentration (IC50) is 0.421 nM.

Regarding B5, the IC50 amounted to 0.605 nM.

The target of the next test is T3, integrin alpha5beta1 (α5β1; R&D systems) (human, UniProt P08648 42-995; P05556 21-728, limits assumed).
T3 construct: Bought heterodimer
T3 sequence (P08648 42-995 limits assumed, chain 1 of 2): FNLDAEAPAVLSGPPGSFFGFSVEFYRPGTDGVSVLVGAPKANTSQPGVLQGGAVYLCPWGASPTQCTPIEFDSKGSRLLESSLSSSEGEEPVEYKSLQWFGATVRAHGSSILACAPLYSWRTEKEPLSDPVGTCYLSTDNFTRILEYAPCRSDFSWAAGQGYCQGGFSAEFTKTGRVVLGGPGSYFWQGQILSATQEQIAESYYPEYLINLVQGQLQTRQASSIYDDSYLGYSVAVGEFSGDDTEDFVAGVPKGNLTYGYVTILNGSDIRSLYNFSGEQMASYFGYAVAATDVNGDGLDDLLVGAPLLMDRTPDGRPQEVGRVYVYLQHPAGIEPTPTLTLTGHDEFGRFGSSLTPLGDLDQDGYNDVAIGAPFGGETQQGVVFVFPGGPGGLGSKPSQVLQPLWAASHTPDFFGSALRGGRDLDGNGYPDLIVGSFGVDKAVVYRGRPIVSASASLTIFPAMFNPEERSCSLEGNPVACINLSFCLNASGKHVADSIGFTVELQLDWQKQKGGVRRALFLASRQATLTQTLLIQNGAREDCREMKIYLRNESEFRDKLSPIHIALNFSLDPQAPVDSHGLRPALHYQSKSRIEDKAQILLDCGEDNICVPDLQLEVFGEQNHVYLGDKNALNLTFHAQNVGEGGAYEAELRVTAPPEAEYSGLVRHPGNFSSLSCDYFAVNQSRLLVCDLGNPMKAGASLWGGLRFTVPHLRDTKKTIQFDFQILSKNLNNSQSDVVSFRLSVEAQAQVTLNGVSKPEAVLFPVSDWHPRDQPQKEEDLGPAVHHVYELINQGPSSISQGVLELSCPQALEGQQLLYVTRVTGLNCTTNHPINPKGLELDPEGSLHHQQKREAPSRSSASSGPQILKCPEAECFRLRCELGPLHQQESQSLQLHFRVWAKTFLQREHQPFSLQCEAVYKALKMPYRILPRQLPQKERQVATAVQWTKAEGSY
T3 sequence (P05556 21-728 limits assumed, chain 2 of 2): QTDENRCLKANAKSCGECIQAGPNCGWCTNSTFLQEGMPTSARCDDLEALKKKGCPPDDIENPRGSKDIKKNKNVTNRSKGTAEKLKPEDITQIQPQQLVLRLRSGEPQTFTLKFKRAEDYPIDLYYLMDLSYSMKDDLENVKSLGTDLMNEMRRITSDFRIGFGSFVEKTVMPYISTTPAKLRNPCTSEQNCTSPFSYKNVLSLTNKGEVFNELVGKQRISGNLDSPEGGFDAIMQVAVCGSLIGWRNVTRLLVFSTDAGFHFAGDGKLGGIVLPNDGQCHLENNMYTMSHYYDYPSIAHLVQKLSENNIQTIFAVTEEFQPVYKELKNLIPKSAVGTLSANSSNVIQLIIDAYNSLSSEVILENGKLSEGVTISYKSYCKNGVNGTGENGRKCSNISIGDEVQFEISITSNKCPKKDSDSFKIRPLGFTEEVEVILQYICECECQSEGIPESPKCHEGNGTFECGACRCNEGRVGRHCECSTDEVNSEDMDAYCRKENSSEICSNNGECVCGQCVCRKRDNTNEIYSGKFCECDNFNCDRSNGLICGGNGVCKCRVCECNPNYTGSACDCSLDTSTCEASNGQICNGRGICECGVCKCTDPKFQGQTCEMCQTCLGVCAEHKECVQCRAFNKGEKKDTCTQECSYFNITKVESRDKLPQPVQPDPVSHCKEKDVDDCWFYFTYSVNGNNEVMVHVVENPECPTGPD
Nature of the test: ELISA: integrin alpha5beta1 coated at 5 ug/ml, FLAG-Ang2 at 10 ug/ml, detection with anti-FLAG-HRP, A450. Here is the method:
After that, an anti-FLAG antibody (Sigma) conjugated with horseradish peroxidase (HRP) was added to react, and the plate was washed again five times with PBS-t. Bindings between Ang2 and the above the integrin were identified indirectly by measuring the amounts of the anti-FLAG antibody remaining in the ELISA plate via color development using TMB (3,3,5,5-tetramethylbenzidine) as a substrate of HRP. As positive controls, control antibody 1 (Regeneron Ang2 antibody) and control antibody 2 (Astra Zeneca Ang2 antibody) were used. Also, to show the background, a group coated with BSA instead of integrin was used.
B8: the binding result is given as “binds”.
